Columns and labels:
TK-10 cells = test: IL-8 and IL-6 production in TK-10 cells (ELISA of conditioned media); type: cell-based, human; conditions: TK-10 cells, 24 hours, IL-8 ELISA
Method: Fractions were tested by incubation with TK-10 cells for 24 hours (0.033 microliters fraction/ml of cell culture media). Conditioned media was then collected and IL-8 and IL-6 concentration measurements were performed on each fraction by ELISA. […] Gels, blots, amino acid sequence and activity assays were run on this fraction (FIG. 3). Alternatively, fraction 31 and the remaining volume of fraction 32, from the HiLoad S Sepharose run were pooled and dialyzed against Buffer A for eight hours using a 10 kD cutoff membrane and passed through a 0.2 micron filter. […] Fractions 26-43 were assayed and protein concentrations were determined by amino acid analysis. Pure IL-17A/F was identified in fractions 31-33 as a single protein with apparent molecular mass of 30-35 kD. The concentrations of fractions 31, 32 and 33 were 0.258, 0.359 and 0.291 mg/ml respectively.
IL-17A/F, IL-17 and IL-17F were incubated with TK-10 cells at the indicated concentrations for 24 hours.
TK-10 conditioned media was collected and analyzed by IL-8 ELISA and IL-6 ELISA.

IL-17R [1] = biological target: T1, IL-17R (Homo sapiens, UniProt Q96F46); test: SPR (BIAcore) binding measurements; conditions: IL-17R up to 1 ┘M
T1 construct: the extracellular domains (ECDs) of either of the two receptors IL-17R (designated PRO1) and IL-17RH1 (PRO5801)
Method: (§1) The kinetics and affinity of IL-17, IL-17E (PRO10272), or IL-17F (PRO20110) binding to IL-17R or IL-17RH1 (PRO5801) were determined by SPR measurements on a Pharmacia BIAcore 1000 instrument (Phamacia Biosensor, Piscataway N.J.). IL-17 ligand or receptor was immobilized onto a flow cell of a CM5 sensor chip via random coupling to amino groups, N-hydroxysuccinimide chemistry, by using a protocol developed by the manufacturer. An immobilization level of about 500 resonance units (RU) was obtained for IL-17R, IL-17RH1, and IL-17F, whereas IL-17 and IL-17E immobilization levels were 1200 and 1500 RU, respectively. A strong signal was obtained for IL-17R binding to immobilized IL-17. […] After blocking unreacted sites with ethanolamine, binding measurements were performed using a flow rate of 25 ┘L/min. Sensorgrams-were obtained for a series of six, two-fold serially diluted protein solutions. The highest concentration used was 1000 or 500 nM protein and the solutions were prepared in the running buffer, PBS containing 0.05% Tween-20. The sensor chip surface was regenerated between binding cycles by injection of a 25 ┘L aliquot of 0.1 M acetic acid, 0.2 M NaCl, pH 3 to elute non-covalent bound protein. Sensorgrams were evaluated according to a 1:1 binding model by non-linear regression analysis using software supplied by the manufacturer. In separate experiments to measure competition between IL-17 variants for binding receptors, a fixed concentration of receptor was incubated with a varied concentration of IL-17 protein followed by injection of this mixture onto a flow cell having immobilized IL-17 protein. The amount of bound receptor was determined from the resonance signal obtained after completion of the association phase.

IL-17RH1 (PRO5801) = biological target: T2, IL-17RH1 (PRO5801) (Homo sapiens, UniProt Q9NRM6); test: SPR (BIAcore) binding measurements; conditions: IL-17RH1 up to 0.5 ┘M
T2 construct: the extracellular domains (ECDs) of either of the two receptors IL-17R (designated PRO1) and IL-17RH1 (PRO5801)
T2 sequence (Q9NRM6 18-292 limits assumed): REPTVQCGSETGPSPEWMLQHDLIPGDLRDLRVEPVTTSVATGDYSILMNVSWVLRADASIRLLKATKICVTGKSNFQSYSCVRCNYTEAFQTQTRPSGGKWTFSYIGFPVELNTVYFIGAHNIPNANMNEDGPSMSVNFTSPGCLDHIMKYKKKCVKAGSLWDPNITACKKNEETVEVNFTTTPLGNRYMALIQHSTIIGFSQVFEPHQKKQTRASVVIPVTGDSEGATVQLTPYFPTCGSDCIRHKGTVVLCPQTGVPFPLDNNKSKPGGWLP
Method: as §1

IL-17R [2] = biological target: T1, IL-17R; test: SPR competition for receptor binding to immobilized IL-17; conditions: IL-17R 500 nM; IL-17F at 2 ┘M
Method: as §1, with “The sensor chip surface was regenerated between binding cycles by injection of a 25 ┘L aliquot of 0.1 M acetic acid, 0.2 M NaCl, pH 3 to elute non-covalent bound protein.” left out, “In separate experiments to measure competition between IL-17 variants for binding receptors, a fixed concentration of receptor was incubated with a varied concentration of IL-17 protein followed by injection of this mixture onto a flow cell having immobilized IL-17 protein.” left out, “phase. […]” for “phase.”

IL-17RH1 = biological target: T3, IL-17RH1 (Homo sapiens, UniProt Q9NRM6); test: SPR competition for receptor binding to immobilized IL-17E; conditions: IL-17RH1 31 nM; IL-17F at 1.3 ┘M
T3 construct: the extracellular domains (ECDs) of either of the two receptors IL-17R (designated PRO1) and IL-17RH1 (PRO5801)
T3 sequence (Q9NRM6 18-292 limits assumed): T2 sequence (Q9NRM6 18-292 limits assumed)
Method: as §1, with “The sensor chip surface was regenerated between binding cycles by injection of a 25 ┘L aliquot of 0.1 M acetic acid, 0.2 M NaCl, pH 3 to elute non-covalent bound protein.” left out, “In separate experiments to measure competition between IL-17 variants for binding receptors, a fixed concentration of receptor was incubated with a varied concentration of IL-17 protein followed by injection of this mixture onto a flow cell having immobilized IL-17 protein.” left out, “phase. […]” for “phase.”

[3] = biological target: T4, Cos cells transfected with IL-17R (Homo sapiens, UniProt Q96F46); test: Binding to Cos cells transfected with IL-17R; type: cell-based; conditions: data not shown
T4 construct: expressed in transfected cells; host or cells: Cos cells

B1: IL-17F: human IL-17F ligand, SEQ ID NO:4 (protein, listed as Homo sapiens)
chain: MTVKTLHGPAMVKYLLLSILGLAFLSEAAARKIPKVGHTFFQKPESCPPVPGGSMKLDIGIINENQRVSMSRNIESRSTSPWNYTVTWDPNRYPSEVVQAQCRNLGCINAQGKEDISMNSVPIQQETLVVRRKHQGCSVSFQLEKVLVTVGCTCVTPVIHHVQ
IL-8 production (TK-10 cells): production of IL-8
binding of IL-17R to immobilized IL-17F (IL-17R [1]): no binding
binding of IL-17RH1 to immobilized IL-17F (IL-17RH1 (PRO5801)): no binding
competition for binding of IL-17R to immobilized IL-17 (IL-17R [2]): no competition
competition for binding of IL-17RH1 to immobilized IL-17E (IL-17RH1): could not block binding
binding to Cos cells transfected with IL-17R [3]: enhanced binding

Reference: patent US20070160576A1, “IL-17A/F heterologous polypeptides and therapeutic uses thereof” (Genentech, Inc., priority 2001, published 2007)
